The nature of data set [1]: In vivo pharmacokinetic (PK) studies in rats. Conditions: rat, male Sprague-Dawley rats, single SC dose 1.0 mg/kg, serum ELISA; for AUC(0-inf): read-out: Rat PK AUC Total; for level at time molar at 24 h: read-out: Rat PK C24. Also noted: species or system Sprague-Dawley rats. The method in brief:
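Male Sprague-Dawley rats (n=3) given a single 1 mg/kg IV or SC dose of relaxin constructs in 20 mM histidine, 750 mM NaCl, pH 6.0; jugular serum sampled to 72 h. Serum relaxin by ELISA; Cmax, AUCinf, C24 and half-life from non-compartmental analysis of individual profiles.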
In general terms: An ELISA detects its analyte on a solid surface through an enzyme-linked reagent.

Data set [2] deals with T1, human RXFP1 receptor (Homo sapiens, UniProt Q9HBX9).
T1 construct: expressed in transfected cells
T1 sequence (Q9HBX9 1-757): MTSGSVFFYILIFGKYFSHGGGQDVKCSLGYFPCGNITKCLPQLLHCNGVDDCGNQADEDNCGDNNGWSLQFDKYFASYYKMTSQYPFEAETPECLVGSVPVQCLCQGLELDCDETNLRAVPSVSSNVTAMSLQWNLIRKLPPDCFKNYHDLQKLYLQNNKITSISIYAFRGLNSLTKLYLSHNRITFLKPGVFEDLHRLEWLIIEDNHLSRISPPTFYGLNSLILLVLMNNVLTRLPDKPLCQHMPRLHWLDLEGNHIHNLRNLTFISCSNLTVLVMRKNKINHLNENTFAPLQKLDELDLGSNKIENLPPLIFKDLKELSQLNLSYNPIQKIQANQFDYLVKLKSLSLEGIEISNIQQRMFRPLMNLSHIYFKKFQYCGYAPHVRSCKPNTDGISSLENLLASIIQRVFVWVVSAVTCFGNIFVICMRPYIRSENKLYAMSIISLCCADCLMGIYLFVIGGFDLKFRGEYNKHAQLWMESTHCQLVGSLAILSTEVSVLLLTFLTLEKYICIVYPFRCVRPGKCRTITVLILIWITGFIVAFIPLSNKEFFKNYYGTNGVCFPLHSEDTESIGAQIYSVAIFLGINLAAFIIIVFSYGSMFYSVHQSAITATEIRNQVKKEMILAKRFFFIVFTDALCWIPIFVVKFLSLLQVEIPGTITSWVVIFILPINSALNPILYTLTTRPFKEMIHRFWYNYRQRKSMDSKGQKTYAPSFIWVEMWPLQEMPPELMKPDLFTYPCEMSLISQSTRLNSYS
In words: Intracellular cAMP accumulation assay. It is filed as cell-based. On the technique in general: Cyclic AMP is a second messenger, typically raised through Gs and lowered through Gi signalling.

Where [3] appears, read: CHO-K1 cells stably expressing human RXFP1, 10 min at 37° C., HTRF cAMP, average, read-out: hRXFP1/CHO-K1 cAMP EC50 (nM, avg).

Each structure is given as a SMILES string. Like-named read-outs stand apart in the source and are kept apart here.

With `CC[C@H](C)[C@@H]1NC(=O)[C@H](C)NC(=O)[C@H]([C@@H](C)CC)NC(=O)[C@H](CCC(N)=O)NC(=O)[C@H](C)NC(=O)[C@H](CCCNC(=N)N)NC(=O)[C@H](C(C)C)NC(=O)[C@H](CC(C)C)NC(=O)[C@H](CCC(=O)O)NC(=O)[C@H](CCCNC(=N)N)NC(=O)CNC(=O)[C@@H](NC(=O)[C@H](CC(C)C)NC(=O)[C@H](CCCCN)NC(=O)[C@@H](NC(=O)[C@@H](NC(=O)[C@H](CCC(=O)O)NC(=O)[C@H](CCC(=O)O)NC(=O)[C@H](CCSC)NC(=O)[C@H](Cc2c[nH]c3ccccc23)NC(=O)[C@H](CO)NC(=O)[C@H](C)N)C(C)C)[C@@H](C)CC)CSSC[C@@H]2NC(=O)[C@@H](NC(=O)[C@H](CCCCN)NC(=O)[C@H](CC(N)=O)NC(=O)[C@H](C)NC(=O)[C@H](CC(C)C)NC(=O)[C@H](C)NC(=O)[C@H](CO)NC(=O)[C@H](Cc3ccc(O)cc3)NC(=O)[C@H](CC(C)C)NC(=O)[C@@H](N)Cc3ccc(C(C)=NOCCNC(=O)[C@@H](CCCCN)NC(=O)[C@@H](CCCCN)NC(=O)[C@@H](CCCCN)NC(=O)[C@@H](CCCCN)NC(=O)[C@@H](CCCCN)NC(=O)[C@@H](CCCCN)NC(=O)CC[C@H](NC(=O)CCCCCCCCCCCCC(=O)O)C(=O)O)cc3)CSSC[C@H](NC(=O)CNC(=O)[C@H](C(C)C)NC(=O)[C@H](Cc3c[nH]cn3)NC2=O)C(=O)N[C@@H]([C@@H](C)O)C(=O)N[C@@H](CCCCN)C(=O)N[C@@H](CCCNC(=N)N)C(=O)N[C@@H](CO)C(=O)N[C@@H](CC(C)C)C(=O)N[C@@H](C)C(=O)N[C@@H](CCCNC(=N)N)C(=O)N[C@@H](Cc2ccccc2)C(=O)N[C@H](C(=O)O)CSSC[C@@H](C(=O)NCC(=O)N[C@@H](CCSC)C(=O)N[C@@H](CO)C(=O)N[C@H](C(=O)N[C@@H](Cc2c[nH]c3ccccc23)C(=O)N[C@@H](CO)C(=O)O)[C@@H](C)O)NC1=O` [AQ1-dKdKdKdKdKdK-Glu^γ-C13-COOH], in data set [1], the AUC(0-inf) was 0.0312 µM·h and the level at time molar at 24 h worked out at 0.06 nM. This compound also returned an EC50 in data set [2] of 0.1 nM.
On to `CC[C@H](C)[C@@H]1NC(=O)[C@H](C)NC(=O)[C@H]([C@@H](C)CC)NC(=O)[C@H](CCC(N)=O)NC(=O)[C@H](C)NC(=O)[C@H](CCCNC(=N)N)NC(=O)[C@H](C(C)C)NC(=O)[C@H](CC(C)C)NC(=O)[C@H](CCC(=O)O)NC(=O)[C@H](CCCNC(=N)N)NC(=O)CNC(=O)[C@@H](NC(=O)[C@H](CC(C)C)NC(=O)[C@H](CCCCN)NC(=O)[C@@H](NC(=O)[C@@H](NC(=O)[C@H](CCC(=O)O)NC(=O)[C@H](CCC(=O)O)NC(=O)[C@H](CCSC)NC(=O)[C@H](Cc2c[nH]c3ccccc23)NC(=O)[C@H](CO)NC(=O)[C@H](C)N)C(C)C)[C@@H](C)CC)CSSC[C@@H]2NC(=O)[C@@H](NC(=O)[C@H](CCCCN)NC(=O)[C@H](CC(N)=O)NC(=O)[C@H](C)NC(=O)[C@H](CC(C)C)NC(=O)[C@H](C)NC(=O)[C@H](CO)NC(=O)[C@H](Cc3ccc(O)cc3)NC(=O)[C@H](CC(C)C)NC(=O)[C@@H](N)Cc3ccc(C(C)=NOCCNC(=O)[C@H](CCCNC(=N)N)NC(=O)CNC(=O)CNC(=O)[C@H](CCC(=O)O)NC(=O)[C@H](CCC(=O)O)NC(=O)[C@H](CCCCN)NC(=O)[C@H](CCCCN)NC(=O)[C@H](CCCCN)NC(=O)[C@H](CCC(=O)O)NC(=O)[C@H](CCCCN)NC(=O)[C@H](CCC(=O)O)NC(=O)[C@H](CCCCN)NC(=O)CC[C@H](NC(=O)CCCCCCCCCCCCC(=O)O)C(=O)O)cc3)CSSC[C@H](NC(=O)CNC(=O)[C@H](C(C)C)NC(=O)[C@H](Cc3c[nH]cn3)NC2=O)C(=O)N[C@@H]([C@@H](C)O)C(=O)N[C@@H](CCCCN)C(=O)N[C@@H](CCCNC(=N)N)C(=O)N[C@@H](CO)C(=O)N[C@@H](CC(C)C)C(=O)N[C@@H](C)C(=O)N[C@@H](CCCNC(=N)N)C(=O)N[C@@H](Cc2ccccc2)C(=O)N[C@H](C(=O)O)CSSC[C@@H](C(=O)NCC(=O)N[C@@H](CCSC)C(=O)N[C@@H](CO)C(=O)N[C@H](C(=O)N[C@@H](Cc2c[nH]c3ccccc23)C(=O)N[C@@H](CO)C(=O)O)[C@@H](C)O)NC1=O` [AQ1-RGGEEKKKEKEK-Glu^γ-C13-COOH], for which, in data set [1], the AUC(0-inf) worked out at 0.987 µM·h and the level at time molar at 24 h came to 0.1 nM. For the same compound, in data set [2] (setting [3]), the EC50 was 0.29 nM.
Taken in the same sequence, the figures for `CC[C@H](C)[C@@H]1NC(=O)[C@H](C)NC(=O)[C@H]([C@@H](C)CC)NC(=O)[C@H](CCC(N)=O)NC(=O)[C@H](C)NC(=O)[C@H](CCCNC(=N)N)NC(=O)[C@H](C(C)C)NC(=O)[C@H](CC(C)C)NC(=O)[C@H](CCC(=O)O)NC(=O)[C@H](CCCNC(=N)N)NC(=O)CNC(=O)[C@@H](NC(=O)[C@H](CC(C)C)NC(=O)[C@H](CCCCN)NC(=O)[C@@H](NC(=O)[C@@H](NC(=O)[C@H](CCC(=O)O)NC(=O)[C@H](CCC(=O)O)NC(=O)[C@H](CCSC)NC(=O)[C@H](Cc2c[nH]c3ccccc23)NC(=O)[C@H](CO)NC(=O)[C@H](C)N)C(C)C)[C@@H](C)CC)CSSC[C@@H]2NC(=O)[C@@H](NC(=O)[C@H](CCCCN)NC(=O)[C@H](CC(N)=O)NC(=O)[C@H](C)NC(=O)[C@H](CC(C)C)NC(=O)[C@H](C)NC(=O)[C@H](CO)NC(=O)[C@H](Cc3ccc(O)cc3)NC(=O)[C@H](CC(C)C)NC(=O)[C@@H](N)Cc3ccc(C(C)=NOCCNC(=O)[C@H](CC(=O)O)NC(=O)[C@H](CCCNC(=N)N)NC(=O)[C@H](CC(=O)O)NC(=O)[C@H](CC(=O)O)NC(=O)[C@H](CCCNC(=N)N)NC(=O)[C@H](CC(=O)O)NC(=O)CCCCCCCCCCCCC(=O)O)cc3)CSSC[C@H](NC(=O)CNC(=O)[C@H](C(C)C)NC(=O)[C@H](Cc3c[nH]cn3)NC2=O)C(=O)N[C@@H]([C@@H](C)O)C(=O)N[C@@H](CCCCN)C(=O)N[C@@H](CCCNC(=N)N)C(=O)N[C@@H](CO)C(=O)N[C@@H](CC(C)C)C(=O)N[C@@H](C)C(=O)N[C@@H](CCCNC(=N)N)C(=O)N[C@@H](Cc2ccccc2)C(=O)N[C@H](C(=O)O)CSSC[C@@H](C(=O)NCC(=O)N[C@@H](CCSC)C(=O)N[C@@H](CO)C(=O)N[C@H](C(=O)N[C@@H](Cc2c[nH]c3ccccc23)C(=O)N[C@@H](CO)C(=O)O)[C@@H](C)O)NC1=O` [AQ1-DRDDRD-C13-COOH] were 1.01 µM·h, 0.38 nM and 0.32 nM.
As to `CC[C@H](C)[C@@H]1NC(=O)[C@H](C)NC(=O)[C@H]([C@@H](C)CC)NC(=O)[C@H](CCC(N)=O)NC(=O)[C@H](C)NC(=O)[C@H](CCCNC(=N)N)NC(=O)[C@H](C(C)C)NC(=O)[C@H](CC(C)C)NC(=O)[C@H](CCC(=O)O)NC(=O)[C@H](CCCNC(=N)N)NC(=O)CNC(=O)[C@@H](NC(=O)[C@H](CC(C)C)NC(=O)[C@H](CCCCN)NC(=O)[C@@H](NC(=O)[C@@H](NC(=O)[C@H](CCC(=O)O)NC(=O)[C@H](CCC(=O)O)NC(=O)[C@H](CCSC)NC(=O)[C@H](Cc2c[nH]c3ccccc23)NC(=O)[C@H](CO)NC(=O)[C@H](C)N)C(C)C)[C@@H](C)CC)CSSC[C@@H]2NC(=O)[C@@H](NC(=O)[C@H](CCCCN)NC(=O)[C@H](CC(N)=O)NC(=O)[C@H](C)NC(=O)[C@H](CC(C)C)NC(=O)[C@H](C)NC(=O)[C@H](CO)NC(=O)[C@H](Cc3ccc(O)cc3)NC(=O)[C@H](CC(C)C)NC(=O)[C@@H](N)Cc3ccc(C(C)=NOCCNC(=O)[C@H](CCCCN)NC(=O)[C@H](CCCCN)NC(=O)[C@H](CCCCN)NC(=O)[C@H](CO)NC(=O)CNC(=O)CNC(=O)[C@H](CO)NC(=O)CNC(=O)CNC(=O)CC[C@H](NC(=O)CCCCCCCCCCCCC(=O)O)C(=O)O)cc3)CSSC[C@H](NC(=O)CNC(=O)[C@H](C(C)C)NC(=O)[C@H](Cc3c[nH]cn3)NC2=O)C(=O)N[C@@H]([C@@H](C)O)C(=O)N[C@@H](CCCCN)C(=O)N[C@@H](CCCNC(=N)N)C(=O)N[C@@H](CO)C(=O)N[C@@H](CC(C)C)C(=O)N[C@@H](C)C(=O)N[C@@H](CCCNC(=N)N)C(=O)N[C@@H](Cc2ccccc2)C(=O)N[C@H](C(=O)O)CSSC[C@@H](C(=O)NCC(=O)N[C@@H](CCSC)C(=O)N[C@@H](CO)C(=O)N[C@H](C(=O)N[C@@H](Cc2c[nH]c3ccccc23)C(=O)N[C@@H](CO)C(=O)O)[C@@H](C)O)NC1=O` [AQ1-KKKSGGSGG-Glu^γ-C13-COOH], in data set [1], the AUC(0-inf) came to 0.264 µM·h and the level at time molar at 24 h turned out to be 0.21 nM. Also, in data set [2], the EC50 worked out at 0.14 nM.

The values above are taken from patent US12097241B2, “Methods of treating kidney failure, and/or improving or stablizing renal function using modified relaxin polypeptides” (BRISTOL-MYERS SQUIBB COMPANY, priority 2017, dated 2024).
